# Reference: publication PMC9468336, “The choanoflagellate pore-forming lectin SaroL-1 punches holes in cancer cells by targeting the tumor-related glycosphingolipid Gb3” (Communications Biology, 2022)
# Values joined by “and” are separate entries in the source; they are usually repeats but may differ in a detail not shown here. Equal values may be shown once.
# B1: SaroL-1: Recombinant pore-forming lectin of Salpingoeca rosetta (UniProt F2UID9, 329 amino acids) with β-trefoil and aerolysin-like domains (protein)
# chain: MSSTFEPATDSPLPVPGVQYFLQHVQSGKYVHPHGGSDMPGNDTALVLHHGFDEKRDALRWVFVNDAENKHQLKHYSSGKFVHPKGGKVGKEATLVVHSSPGRPETMIEMVQEDGRTYLRHTDSDYYVHPHGGSPNPGDNTRLVYYSGYRPSLAFLAIPAETLFVDRIEIHQAQALESINTITSLSDEHRNDTDQPVQTSISVALEESLQDSAQLSFERCFGLKVGSEFEVGLPLVGKTKVSVQFSGSWKSSTIKGEVRTSAVKVQINEHVTIPPGKCVQIRIDTRRCTKTAPATMYLRTASGIEVQRETTVTSTYHYDQEVHVVPVTN
# modifications: left off: His6, N-terminal, state not stated
# notes: Recombinant pore-forming lectin of Salpingoeca rosetta (UniProt F2UID9, 329 amino acids) with β-trefoil and aerolysin-like domains
# Columns and labels:
# [1] = Dextran influx into GUVs (pore formation); assay type: biochemical; details: for GUVs filled with dextran-AF488, average %: 3 kDa dextran; for GUVs filled with 70 kDa FITC-dextran, average %: 70 kDa dextran
# Text: (§1) GUVs were composed of 1,2-dioleoyl-sn-glycero-3-phosphocholine (DOPC), cholesterol (both AvantiPolar Lipids, United States), Atto 647 N 1,2-dioleoyl-sn-glycero-3-phosphoethanolamine (DOPE; Sigma-Aldrich), and one of the following glycolipids at a molar ratio of 64.7:30:0.3:5. The glycolipids are globotriaosylceramide (Gb3, Matreya), FSL-Gb3 (Function-Spacer-Lipid with globotriaosyl saccharide), and corresponding FSL-isoGb3 (Function-Spacer-Lipid with iso-globotriaosyl saccharide) synthetized as previously described[84],[85], FSL-A(tri) (Function-Spacer-Lipid with blood group A trisaccharide; Sigma-Aldrich), FSL-B(tri) (Function-Spacer-Lipid with blood group B trisaccharide; Sigma-Aldrich) or lactosylceramide (LC, Sigma-Aldrich).
# GUVs were prepared by the electroformation method as earlier described. Briefly, lipids dissolved in chloroform of a total concentration of 0.5 mg/mL were spread on indium tin oxid-covered (ITO) glass slides and dried in a vacuum for at least 1 h or overnight. Two ITO slides were assembled to create a chamber filled with sucrose solution adapted to the osmolarity of the imaging buffer of choice, either HBSS (live-cell imaging) or PBS (GUVs only imaging). Then, an alternating electrical field with a field strength of 1 V/mm was implemented for 2.5 h at RT. Later we observed the GUVs in chambers manually built as described.
# Dextran Alexa Fluor 488 (Dextran-AF488) with a MW of 3 kDa (Thermo Fischer) or 70 kDa FITC-dextran (Sigma-Aldrich) was added to the observation chamber (0.02 mg/mL) in PBS buffer together with 200 nM SaroL-1. Then wt Gb3-containing GUVs (40 µL) were added for imaging and monitoring of pore-formation. Dextran-AF488 was present in the GUVs’ surrounding solution. For PNPG treatment, 200 nM of SaroL-1 was pre-incubated with 10 mM PNPG dissolved in DMSO for 15 min at RT in the observation chamber. Directly after, dextran-AF488 (0.02 mg/mL) and 40 µL wt Gb3-containing GUVs were added to the observation chamber and monitored using confocal microscopy.
# H1299 cells = assay: Cell proliferation (MTT) assay; assay type: cell-based, human
# Experimental: The human lung epithelial cell line H1299 (American Type Culture Collection, CRL-5803) was cultured in a complete medium, consisting of Roswell Park Memorial Institute (RPMI) medium supplemented with 10% fetal calf serum (FCS) and 2 mM L-glutamine at 37 °C and 5% CO2. Cells were stimulated with different concentrations of SaroL-1 in a complete medium for indicated time points.
# To investigate the cytotoxic effect of SaroL-1 on human cells, H1299 cells were treated with increasing concentrations of SaroL-1 for 24 h in a standard MTT assay. For the depletion of Gb3 from the plasma membrane, H1299 cells were treated with 2 µM PPMP for 72 h before the experiment. 3.5 × 10^4 cells per well were transferred to a 96-well plate with a U-bottom. The cells were centrifuged at 1600 × g for 3 min at RT. The cell pellet was re-suspended in 100 μL of variously concentrated protein solutions (3, 14, 27, 68, 135, 270, 680, 1360 nM) and transferred to a 96-well flat-bottomed plate. The cells were incubated for 24 h at 37 °C. Subsequently, 10 μL of MTT labelling solution (MTT Cell Proliferation Kit, Roche) was added to each well, and the cells were incubated for 4 h at 37 °C. Then, 100 μL of the solubilisation reagent was added to each well, and the plate was incubated at 37 °C overnight. The next day, the absorbance of the samples was measured at 550 nm using a BioTek microplate reader. To assess SaroL-1 cytotoxicity in the presence of the soluble sugar PNPG, 3.5 × 10^4 cells per well were transferred to a 96-well plate with a U-bottom. Variously concentrated protein solutions (3, 14, 27, 68, 135, 270, 680, 1360 nM) were preincubated with 10 mM PNPG dissolved in complete medium, for 15 min at RT. The cells were centrifuged at 1600 × g for 3 min at RT. Next, the cell pellet was re-suspended in 100 μL protein solution and transferred to a 96-well flat-bottomed plate. The cells were incubated for 24 h at 37 °C, and the MTT assay was performed as described above. The data was further analyzed using GraphPad Prism software.
# SaroL-1 = molecular target: T1, SaroL-1 (Salpingoeca rosetta, UniProt F2UID9); assay: Isothermal titration calorimetry (MicroCal iTC200) at 25 °C in 20 mM Tris/HCl pH 7.5, 100 mM NaCl, ligand titrated into SaroL-1, one-site model with stoichiometry N fixed to 3.; assay type: binding
# T1 construct: gene PTSG_08235; monomeric in solution
# Experimental: Isothermal Titration Calorimetry (ITC)
# ITC experiments were performed with MicroCaliTC200 (Malvern Panalytical). Experiments were carried out at 25 °C ± 0.1 °C. SaroL-1 and ligands samples were prepared in Buffer A. The ITC cell contained SaroL-1 in a concentration range from 0.05 mM to 0.16 mM. The syringe contained the ligand solutions in a concentration from 10 to 50 mM. 2 μL of ligands solutions were injected into the sample cell at intervals of 120 s while stirring at 750 rpm. Integrated heat effects were analysed by nonlinear regression using one site binding model (MicroCal PEAQ-ITC Analysis software). The experimental data were fitted to a theoretical curve, which gave the dissociation constant (Kd) and the enthalpy of binding (∆H).
# [2] = Confocal imaging of SaroL-1 binding to lactosylceramide GUVs; details: 200 nM labelled SaroL-1, Lac-cer GUVs
# Text: as §1
# (§2) GUVs were prepared by the electroformation method as earlier described. Briefly, lipids dissolved in chloroform of a total concentration of 0.5 mg/mL were spread on indium tin oxid-covered (ITO) glass slides and dried in a vacuum for at least 1 h or overnight. […]
# (§3) Samples of GUVs and SaroL-1 were imaged using a confocal fluorescence microscope (Nikon Eclipse Ti-E inverted microscope equipped with Nikon A1R confocal laser scanning system, 60x oil immersion objective, NA = 1.49 and four laser lines: 405 nm, 488 nm, 561 nm, and 640 nm). […]
# [3] = Confocal imaging of SaroL-1 binding to FSL-A GUVs; details: 200 nM SaroL-1, FSL-A GUVs
# Text: as §1, §2, §3
# [4] = Confocal imaging of SaroL-1 binding to FSL-B GUVs; details: 200 nM SaroL-1, FSL-B GUVs
# Text: as §1, §2, §3
# [5] = Confocal imaging of SaroL-1 binding to DOPC GUVs without glycolipids; details: 200 nM SaroL-1, DOPC GUVs without glycolipids (negative control)
# Text: as §1, §2, §3
# [6] = 200 nM SaroL-1, 30 min, listed as SaroL1
# [7] = 200 nM SaroL-1, 120 min, listed as SaroL1
molecule,measurement,setting,value
"O=[N+]([O-])c1ccc(O[C@H]2O[C@H](CO)[C@H](O)[C@H](O)[C@H]2O)cc1 [PNPG, p-nitrophenyl-α-D-galactopyranoside]","GUVs filled with dextran-AF488, average %","[1]; 200 nM SaroL-1 pre-treated with 10 mM PNPG, 0 min",0%
same,"GUVs filled with dextran-AF488, average %","[1]; 200 nM SaroL-1 pre-treated with 10 mM PNPG, 60 min",0.4205%
same,"GUVs filled with dextran-AF488, average %","[1]; 200 nM SaroL-1 pre-treated with 10 mM PNPG, 120 min",4% and 4.251%
same,reduction of SaroL-1-induced cell death,"H1299 cells; SaroL-1 (3-1358 nM) pre-incubated with 10 mM PNPG, 24 h",> 90%
same,Kd,SaroL-1,1010 µM
B1,binding to GUVs,[2],very weak binding
same,binding to GUVs,[3],No binding
same,binding to GUVs,[4],No binding
same,binding to GUVs,[5],No binding
same,"GUVs filled with dextran-AF488, average %","[1]; 200 nM SaroL-1, 0 min",11.106%
same,"GUVs filled with dextran-AF488, average %","[1]; 200 nM SaroL-1, 30 min",45%
same,"GUVs filled with dextran-AF488, average %",[1]; [6],45.1678%
same,"GUVs filled with dextran-AF488, average %","[1]; 200 nM SaroL-1, 60 min",57.8615%
same,"GUVs filled with dextran-AF488, average %","[1]; 200 nM SaroL-1, 120 min",69%
same,"GUVs filled with dextran-AF488, average %",[1]; [7],69.3211%
same,"GUVs filled with 70 kDa FITC-dextran, average %","[1]; 200 nM SaroL-1, 0 min",4.422%
same,"GUVs filled with 70 kDa FITC-dextran, average %","[1]; 200 nM SaroL-1, 30 min",17%
same,"GUVs filled with 70 kDa FITC-dextran, average %",[1]; [6],16.9551%
same,"GUVs filled with 70 kDa FITC-dextran, average %","[1]; 200 nM SaroL-1, 60 min",29%
same,"GUVs filled with 70 kDa FITC-dextran, average %","[1]; 200 nM SaroL-1, 60 min, listed as SaroL1",28.4248%
same,"GUVs filled with 70 kDa FITC-dextran, average %","[1]; 200 nM SaroL-1, 120 min",29%
same,"GUVs filled with 70 kDa FITC-dextran, average %",[1]; [7],29.7507%
same,reduction of cell viability,"H1299 cells; 24 h, 1.36 µM SaroL-1",~ 87%
same,IC50,"H1299 cells; 24 h, FCS-containing medium, read-out: concentration at which the percentage of viable cells decreased by half",0.271 µM
same,cytotoxicity on Gb3-depleted cells (in words),"H1299 cells; H1299 pre-treated with PPMP for 72 h, 24 h with SaroL-1",remarkably reduced
